From publication PMC2761088 come the findings set out here.

In the assay the target is human recombinant Akt1-GST (not treated with H2O2) (human) (UniProt P31749).
Chain of UniProt P31749 (P31749 whole entry): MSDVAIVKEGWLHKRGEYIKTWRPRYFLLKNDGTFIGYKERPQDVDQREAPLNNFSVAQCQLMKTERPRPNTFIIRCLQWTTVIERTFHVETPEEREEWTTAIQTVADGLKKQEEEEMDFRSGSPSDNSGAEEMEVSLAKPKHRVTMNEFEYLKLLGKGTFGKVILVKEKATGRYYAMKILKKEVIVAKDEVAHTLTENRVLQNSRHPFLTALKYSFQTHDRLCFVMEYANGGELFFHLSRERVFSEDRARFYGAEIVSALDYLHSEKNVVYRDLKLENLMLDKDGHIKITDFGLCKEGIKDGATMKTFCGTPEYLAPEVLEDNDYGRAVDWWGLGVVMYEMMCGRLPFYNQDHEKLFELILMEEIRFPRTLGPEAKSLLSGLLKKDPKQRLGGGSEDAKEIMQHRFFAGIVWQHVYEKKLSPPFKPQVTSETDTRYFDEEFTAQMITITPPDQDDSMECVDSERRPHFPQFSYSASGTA

As to “PDK1 (PI3K-dependent kinase 1) of NIH/3T3 mitochondrial fractions (from UniProt Q9Z2A0 1-559) (enzyme)”, the Akt1 activity (formation of P-GSK-3 α/β in vitro) of Akt1 immunoprecipitated from mitochondrial extracts of NIH cells treated with low to high H2O2; decreased to 45% of control at high H2O2 stood at 150%.
